Sequences and labels used below:
B6: GST-fused lamin 250 to 400 fragment (human lamin A/C residues 250-400) (domain or fragment, UniProt P02545 250-400, looked up)
chain: AQHEDQVEQYKKELEKTYSAKLDNARQSAERNSNLVGAAHEELQQSRIRIDSLSAQLSQLQKQLAAKEAKLRDLEDSLARERDTSRRLLAEKEREMAEMRARMQQQLDEYQELLDIKLALDMEIHAYRKLLEGEEERLRLSPSPTSQRSRG
notes: human lamin A/C, residues 250-400: most of coil 2 (242-385) and a C-terminal flanking region (386-400); also called GST-lamin coil 250-400; lamin C-terminal 250 to 400 fragment; source: E. coli, purified (glutathione-agarose, HiTrap Q, desalting); not shown: GST, N-terminal, kept

The target of series [1] is lamin A/C 250-400 (UniProt P02545). Nature of the series: GST pull-down, SDS-PAGE. Particulars: reference: wild type, CDK1 treated.
Series [2] addresses B6. Nature of the series: pull-down; GST-fused coil 2C fragment (5 μM) on GSH-agarose resin with lamin N-terminal fragments (20 μM); 20 mM Tris-HCl pH 7.5, 50 mM NaCl, 1 h at room temperature; eluted with 20 mM GSH; SDS-PAGE or Phos-tag SDS-PAGE. Particulars: both partners purified.
Series [3] concerns the target T1, L59R mutant lamin 1 to 300 fragment (human, UniProt P02545 1-300, L59R).
T1 construct: lamin A/C, residues 1-300, with the genetic (laminopathy) mutation L59R; also called L59R-harboring lamin 1 to 300; L59R lamin 1 to 300
T1 sequence (looked up): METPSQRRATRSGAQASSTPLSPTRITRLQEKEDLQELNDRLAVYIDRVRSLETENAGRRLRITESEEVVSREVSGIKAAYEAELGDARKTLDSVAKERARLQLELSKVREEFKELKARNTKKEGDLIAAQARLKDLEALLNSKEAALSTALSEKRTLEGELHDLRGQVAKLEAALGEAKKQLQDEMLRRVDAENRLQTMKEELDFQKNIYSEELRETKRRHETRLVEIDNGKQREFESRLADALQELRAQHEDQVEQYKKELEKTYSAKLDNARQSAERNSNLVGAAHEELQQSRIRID
The description is as above. Particulars: both partners purified.

The target in series [4] is T2, WT lamin 1 to 300 fragment (lamin A/C residues 1-300) (human, UniProt P02545 1-300).
T2 construct: lamin A/C, residues 1-300 (head region 1-27 and part of the central rod domain); The abstract says purified proteins were used; also called lamin 1-300; lamin N-terminal 1 to 300 fragment
T2 sequence (looked up): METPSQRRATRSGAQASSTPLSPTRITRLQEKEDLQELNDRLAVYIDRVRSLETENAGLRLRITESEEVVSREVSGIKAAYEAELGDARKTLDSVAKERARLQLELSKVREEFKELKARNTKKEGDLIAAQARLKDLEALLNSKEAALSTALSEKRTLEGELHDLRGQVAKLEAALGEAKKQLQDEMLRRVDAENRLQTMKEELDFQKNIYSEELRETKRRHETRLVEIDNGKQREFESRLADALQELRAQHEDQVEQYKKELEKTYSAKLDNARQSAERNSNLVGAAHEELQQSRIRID
The description is as above. Particulars: both partners purified.

Series [5] concerns the molecule itself. Nature of the series: cross-linking; disulfide bond between Cys146 of two coiled-coil dimers as read-out of the A11 tetramer; Phos-tag SDS-PAGE with nonreducing loading dye.

For the molecule “lamin A/C 1-125 (from UniProt P02545) T19A, CDK1 treated”, in series [1] (sites T19), the “binding against the reference” value is given as “stronger”.

“lamin A/C 1-125 (from UniProt P02545) S22A, CDK1 treated”: in series [1] (sites S22), the “binding against the reference” value is “stronger”.

B1: WT lamin 1 to 125 fragment (human lamin A/C, residues 1-125) (domain or fragment, UniProt P02545 1-125, looked up)
chain: METPSQRRATRSGAQASSTPLSPTRITRLQEKEDLQELNDRLAVYIDRVRSLETENAGLRLRITESEEVVSREVSGIKAAYEAELGDARKTLDSVAKERARLQLELSKVREEFKELKARNTKKEG
On to B1, for which the binding result in series [2] is given as “binds”.

B2: lamin 1 to 125 fragment S22A (domain or fragment, human, UniProt P02545 1-125, looked up)
chain: METPSQRRATRSGAQASSTPLAPTRITRLQEKEDLQELNDRLAVYIDRVRSLETENAGLRLRITESEEVVSREVSGIKAAYEAELGDARKTLDSVAKERARLQLELSKVREEFKELKARNTKKEG
Turning to B2, in series [2], the binding result is “binds”.

B3: lamin 1 to 125 fragment T19A (domain or fragment, human, UniProt P02545 1-125, looked up)
chain: METPSQRRATRSGAQASSAPLSPTRITRLQEKEDLQELNDRLAVYIDRVRSLETENAGLRLRITESEEVVSREVSGIKAAYEAELGDARKTLDSVAKERARLQLELSKVREEFKELKARNTKKEG
For the molecule B3, the binding result in series [2] is on record as “binds”.

B4: lamin 1 to 125 fragment T19D/S22D (domain or fragment, human, UniProt P02545 1-125, looked up)
chain: METPSQRRATRSGAQASSDPLDPTRITRLQEKEDLQELNDRLAVYIDRVRSLETENAGLRLRITESEEVVSREVSGIKAAYEAELGDARKTLDSVAKERARLQLELSKVREEFKELKARNTKKEG
notes: also called phosphorylation-mimicking dual mutant
As to B4, the binding result in series [2] is “binds”.

B5: lamin 1 to 125 fragment T19A/S22A (domain or fragment, human, UniProt P02545 1-125, looked up)
chain: METPSQRRATRSGAQASSAPLAPTRITRLQEKEDLQELNDRLAVYIDRVRSLETENAGLRLRITESEEVVSREVSGIKAAYEAELGDARKTLDSVAKERARLQLELSKVREEFKELKARNTKKEG
notes: also called double mutant
B5: the binding result in series [2] is given as “binds”.

Take B6: the binding result in series [3] and in series [4] was “binds” throughout.

B7: A146C mutant lamin 1 to 300 fragment (domain or fragment, human, UniProt P02545 1-300, looked up)
chain: METPSQRRATRSGAQASSTPLSPTRITRLQEKEDLQELNDRLAVYIDRVRSLETENAGLRLRITESEEVVSREVSGIKAAYEAELGDARKTLDSVAKERARLQLELSKVREEFKELKARNTKKEGDLIAAQARLKDLEALLNSKECALSTALSEKRTLEGELHDLRGQVAKLEAALGEAKKQLQDEMLRRVDAENRLQTMKEELDFQKNIYSEELRETKRRHETRLVEIDNGKQREFESRLADALQELRAQHEDQVEQYKKELEKTYSAKLDNARQSAERNSNLVGAAHEELQQSRIRID
notes: lamin A/C, residues 1-300; Cys146 forms a disulfide between two coiled-coil dimers within the A11 tetramer; also called lamin 1 to 300 (A146C)
Take B7: the binding result in series [5] is given as “binds”.

For the origin of these results see publication PMC9400090, “Cyclin-dependent kinase 1 depolymerizes nuclear lamin filaments by disrupting the head-to-tail interaction of the lamin central rod domain” (The Journal of Biological Chemistry, 2022).
